Sequences and labels used below:
B1: Potassium voltage-gated channel protein eag (Drosophila melanogaster (Fruit fly)), Q02280 (parent)
chain: MPGGRRGLVAPQNTFLENIIRRSNSQPDSSFLLANAQIVDFPIVYCNESFCKISGYNRAEVMQKSCRYVCGFMYGELTDKETVGRLEYTLENQQQDQFEILLYKKNNLQCGCALSQFGKAQTQETPLWLLLQVAPIRNERDLVVLFLLTFRDITALKQPIDSEDTKGVLGLSKFAKLARSVTRSRQFSAHLPTLKDPTKQSNLAHMMSLSADIMPQYRQEAPKTPPHILLHYCAFKAIWDWVILCLTFYTAIMVPYNVAFKNKTSEDVSLLVVDSIVDVIFFIDIVLNFHTTFVGPGGEVVSDPKVIRMNYLKSWFIIDLLSCLPYDVFNAFDRDEDGIGSLFSALKVVRLLRLGRVVRKLDRYLEYGAAMLILLLCFYMLVAHWLACIWYSIGRSDADNGIQYSWLWKLANVTQSPYSYIWSNDTGPELVNGPSRKSMYVTALYFTMTCMTSVGFGNVAAETDNEKVFTICMMIIAALLYATIFGHVTTIIQQMTSATAKYHDMLNNVREFMKLHEVPKALSERVMDYVVSTWAMTKGLDTEKVLNYCPKDMKADICVHLNRKVFNEHPAFRLASDGCLRALAMHFMMSHSAPGDLLYHTGESIDSLCFIVTGSLEVIQDDEVVAILGKGDVFGDQFWKDSAVGQSAANVRALTYCDLHAIKRDKLLEVLDFYSAFANSFARNLVLTYNLRHRLIFRKVADVKREKELAERRKNEPQLPQNQDHLVRKIFSKFRRTPQVQAGSKELVGGSGQSDVEKGDGEVERTKVFPKAPKLQASQATLARQDTIDEGGEVDSSPPSRDSRVVIEGAAVSSATVGPSPPVATTSSAAAGAGVSGGPGSGGTVVAIVTKADRNLALERERQIEMASSRATTSDTYDTGLRETPPTLAQRDLIATVLDMKVDVRLELQRMQQRIGRIEDLLGELVKRLAPGAGSGGNAPDNSSGQTTPGDEICAGCGAGGGGTPTTQAPPTSAVTSPVDTVITISSPGASGSGSGTGAGAGSAVAGAGGAGLLNPGATVVSSAGGNGLGPLMLKKRRSKSRKAPAPPKQTLASTAGTATAAPAGVAGSGMTSSAPASADQQQQHQSTADQSPTTPGAELLHLRLLEEDFTAAQLPSTSSGGAGGGGGSGSGATPTTPPPTTAGGSGSGTPTSTTATTTPTGSGTATRGKLDFL
partner: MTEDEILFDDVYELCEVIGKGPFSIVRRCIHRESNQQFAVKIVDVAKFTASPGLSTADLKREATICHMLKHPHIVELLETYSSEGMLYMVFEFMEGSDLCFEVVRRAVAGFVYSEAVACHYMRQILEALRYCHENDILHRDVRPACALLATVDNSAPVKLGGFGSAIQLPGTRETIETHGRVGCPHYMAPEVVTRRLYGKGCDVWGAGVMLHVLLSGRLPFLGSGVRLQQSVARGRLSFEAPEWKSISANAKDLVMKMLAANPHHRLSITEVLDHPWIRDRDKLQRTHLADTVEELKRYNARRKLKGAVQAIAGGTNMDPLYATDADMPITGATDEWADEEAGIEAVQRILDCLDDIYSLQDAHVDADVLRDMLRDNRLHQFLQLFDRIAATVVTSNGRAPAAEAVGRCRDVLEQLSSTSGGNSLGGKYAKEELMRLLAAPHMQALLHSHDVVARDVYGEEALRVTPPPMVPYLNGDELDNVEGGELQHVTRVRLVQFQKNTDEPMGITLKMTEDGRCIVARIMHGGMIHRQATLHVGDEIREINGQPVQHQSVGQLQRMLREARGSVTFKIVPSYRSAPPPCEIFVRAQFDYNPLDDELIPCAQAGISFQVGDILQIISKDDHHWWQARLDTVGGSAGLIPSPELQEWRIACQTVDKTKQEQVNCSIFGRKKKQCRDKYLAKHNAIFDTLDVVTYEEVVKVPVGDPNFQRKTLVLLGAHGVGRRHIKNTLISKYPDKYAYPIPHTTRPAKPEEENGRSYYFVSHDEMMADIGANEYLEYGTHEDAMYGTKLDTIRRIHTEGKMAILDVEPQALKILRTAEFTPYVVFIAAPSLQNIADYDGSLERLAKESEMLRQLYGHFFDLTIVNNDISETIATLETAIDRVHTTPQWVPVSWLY

The variants in this assay derive from B1. As to conditions: with cskp_drome CASK.
Consider R1037L, for which the “effect of a mutation on the interaction” value is on record as “decreasing interaction”.

Consider K1040M, for which the “effect of a mutation on the interaction” value is “decreasing interaction”.

The values above are taken from IntAct's records for PubMed 15901771.
